Patent publication US11525133 (dated 2022)

Molecular target: p53-TPR2
Test: ITC

B1: Mdm2 N-terminal domain (other)
chain: SQIPASEQETLVRPKPLLLKLLKSVGAQKDTYTMKEVLFYLGQYIMTKRLYDEKQQHIVYCSNDLLGDLFGVPSFSVKEHRKIYTMIYRNLVVVNQQESSDSGTSVSEN
- Kd: 54 nM
